Results reported in patent publication US20260167720A1 (Amgen, published 2026).

B1: MSLN-CDH3 T-cell engager molecule 6 (example to FIG. 2L) (bispecific antibody, human IgG1, kappa, lambda, N297G)
chain 1: not shown
chain 2: EVQLVESGGGLVQPGGSLKLSCAASGFTFNKYAMNWVRQAPGKGMEWVARIRSKYNNYATYYADAVKDRFTISRDDSKNTLYLQMNNLKTEDTAVYYCVRAGNFGSSYISYFAYWGQGTLVTVSSASTKGPSVFPLAPSSKSTSGGTAALGCLVKDYFPEPVTVSWNSGALTSGVHTFPAVLQSSGLYSLESVVTVPSSSLGTQTYICNVNHKPSNTKVDKKVEPKSCDKTHTCPPCPAPELLGGPSVFLFPPKPKDTLMISRTPEVTCVVVDVSHEDPEVKFNWYVDGVEVHNAKTKPCEEQYGSTYRCVSVLTVLHQDWLNGKEYKCKVSNKALPAPIEKTISKAKGQPREPQVYTLPPSRKEMTKNQVSLTCLVKGFYPSDIAVEWESNGQPENNYKTTPPVLKSDGSFFLYSKLTVDKSRWQQGNVFSCSVMHEALHNHYTQKSLSLSPGKGGGGQVQLQESGPGLVKPSETLSLTCTVSGGSISSSSYFWGWIRQPPGKCLEWIGNIYYSGSSNYNPSLKSRVTISVDTSKNQFSLKLSSVTAADTAVYYCARLPRGDRDAFDIWGQGTMVTVSSGGGGQGGGGQGGGGQEIVMTQSPSSLSASVGDRVTITCRASQGISNYLAWYQQKPGKVPKLLIYAASTLQSGVPSRFSGSGSGTDFTLTISSLQPEDFATYYCQQSYSTPFTFGCGTKVEIKSGGGGQEVQLVESGGGLVQPGGSLKLSCAASGFTFNKYAMNWVRQAPGKGMEWVARIRSKYNNYATYYADAVKDRFTISRDDSKNTLYLQMNNLKTEDTAVYYCVRAGNFGSSYISYFAYWGQGTLVTVSSGGGGQGGGGQGGGGQQTVVTQEPSLTVSPGGTVTITCGSSTGAVTSGNYPNWIQKKPGQAPRGLIGGTKFLAPGTPARFSGSLEGGKAALTLSGVQPEDEAEYYCVLYYSNRWVFGSGTKLTVL
chain 3: EIQMTQSPSSLSASVGDRVTITCRASQDISNYLNWYQQKPGKVPKLLIYYTSRLHSGVPSRFSGSGSGTDFTLTISSLQPEDVATYYCVQYAQFPLTFGCGTKVEIKRTVAAPSVFIFPPSDEQLKSGTASVVCLLNNFYPREAKVQWKVDNALQSGNSQESVTEQDSKDSTYSLESTLTLSKADYEKHKVYACEVTHQGLSSPVTKSFNRGEC
chain 4: QTVVTQEPSLTVSPGGTVTITCGSSTGAVTSGNYPNWIQKKPGQAPRGLIGGTKFLAPGTPARFSGSLEGGKAALTLSGVQPEDEAEYYCVLYYSNRWVFGSGTKLTVLGQPKAAPSVTLFPPSSEELQANKATLVCLISDFYPGAVTVAWKADSSPVKAGVETTTPSKQSNNKYAAKSYLSLTPEQWKSHRSYSCQVTHEGSTVEKTVAPTECS
B2: MSLN-CDH3 T-cell engager molecule 7 (example to FIG. 2K) (bispecific antibody, human IgG1, kappa, lambda, N297G)
chain 1: not shown
chain 2: EVQLVESGGGLVQPGGSLKLSCAASGFTFNKYAMNWVRQAPGKGMEWVARIRSKYNNYATYYADAVKDRFTISRDDSKNTLYLQMNNLKTEDTAVYYCVRAGNFGSSYISYFAYWGQGTLVTVSSASTKGPSVFPLAPSSKSTSGGTAALGCLVKDYFPEPVTVSWNSGALTSGVHTFPAVLQSSGLYSLESVVTVPSSSLGTQTYICNVNHKPSNTKVDKKVEPKSCDKTHTCPPCPAPELLGGPSVFLFPPKPKDTLMISRTPEVTCVVVDVSHEDPEVKFNWYVDGVEVHNAKTKPCEEQYGSTYRCVSVLTVLHQDWLNGKEYKCKVSNKALPAPIEKTISKAKGQPREPQVYTLPPSRKEMTKNQVSLTCLVKGFYPSDIAVEWESNGQPENNYKTTPPVLKSDGSFFLYSKLTVDKSRWQQGNVFSCSVMHEALHNHYTQKSLSLSPGKGGGGQGGGGQGGGGQQVQLQESGPGLVKPSETLSLTCTVSGGSISSSSYFWGWIRQPPGKCLEWIGNIYYSGSSNYNPSLKSRVTISVDTSKNQFSLKLSSVTAADTAVYYCARLPRGDRDAFDIWGQGTMVTVSSGGGGQGGGGQGGGGQEIVMTQSPSSLSASVGDRVTITCRASQGISNYLAWYQQKPGKVPKLLIYAASTLQSGVPSRFSGSGSGTDFTLTISSLQPEDFATYYCQQSYSTPFTFGCGTKVEIK
chain 3: B1 chain 3
chain 4: B1 chain 4

Columns and labels:
Assay in all cases: cell-based or functional assay
[1] = target: T1, CDH3 (Cadherin-3, P-Cadherin) on HCT116 or GSU cells (UniProt P22223 108-829, limits assumed)
[2] = target: T2, MSLN (Mesothelin) on HCT116 or GSU cells (UniProt Q13421 37-598, limits assumed)
[3] = target: T1, CDH3 (Cadherin-3, P-Cadherin) on HCT116 …; remark: listed apart in the source
[4] = target: T2, MSLN (Mesothelin) on HCT116 or GSU cells; remark: listed apart in the source

Row | Binder | EC50 GSU KO MSLN [pM]; TDCC, MSLN knocked out, CDH3 left [1] [pM] | EC50 GSU WT [pM]; TDCC, cells double positive for CDH3 and MSLN [1] [pM] | EC50 GSU KO CDH3 [pM]; TDCC, CDH3 knocked out, MSLN left [2] [pM] | EC50 GSU WT [pM]; TDCC, cells double positive for CDH3 and MSLN [2] [pM] | EC50 HCT116 KO MSLN [pM]; TDCC, MSLN knocked out, CDH3 left [3] [pM] | EC50 HCT116 WT [pM]; TDCC, cells double positive for CDH3 and MSLN [3] [pM] | EC50 HCT116 KO CDH3 [pM]; TDCC, CDH3 knocked out, MSLN left [4] [pM] | EC50 HCT116 WT [pM]; TDCC, cells double positive for CDH3 and MSLN [4] [pM]
1 | B1 | 11.6 | 0.024 | 0.89 | 0.024 | 0.27 | 0.002 | 0.58 | 0.002
2 | B2 | 95 | 0.261 | 54.6 | 0.261 | 1.5 | 0.04 | 25.5 | 0.04
